{"source": "the DeepSol protein solubility set"}
{"assay": "soluble on expression in E. coli; label from the status in PepcDB or PDB records"}
{"sequence": "MSLDLEDKQQKLEQAILGALDEVQVLNEDRILRRYLDLIKATLRTNFYQPDGNGQNKSYFSFKFNPKAIPELPRPVPKYEIFVYSPRVEGVHLRGGKVARGGLRWSDREEDFRTEVLGLVKAQQVKNAVIVPVGAKGGFVPRRLPLGGSRDEIQAEAIACYRIFISGLLDITDNLKEGEVVPPANVVRHDEDDPYLVVAADKGTATFSDIANGIAAEYGFWLGDAFASGGSAGYDHKGMGITAKGAWVSVQRHFRERGIDVQKDNISVIGIGDMAGDVFGNGLLMSDKLQLVAAFNHMHIFIDPNPDAASSFVERQRLFNLPRSSWADYDAKLISAGGGIFLRSAKSIAITPEMKARFDIQADRLAPTELIHALLKAPVDLLWNGGIGTYVKSSKETHADVGDKANDGLRVDGRELRAKVVGEGGNLGMTQLARVEFGLHGGANNTDFIDNAGGVDCSDHEVNIKILLNEVVQAGDMTEKQRNALLVKMTDAVGALVLGNNYKQTQALSLAQRRARERIAEYKRLMGDLEARGKLDRALEFLPSDEELAERISAGEGHHHHHH", "soluble on expression in E. coli": "not soluble"}
{"sequence": "MSLDLGTTKYIIYAELIADGYVEKHDVIGAIFGQTEGLLGDELDLRELQKTGRVGRIDVELTNINGKSIAKITVPSSLDRIETSILAATLETIDRVGPCVATVKVIDIEDIRKKKREYIVERAKEILKQLMSNIDVNTIIEEVKESVRMGEIIEYGPERLPAGPAVDEGHHHHHH", "soluble on expression in E. coli": "soluble"}
{"sequence": "MSLDNESLLAILNNWSATNYAKGNYILREISSKFLAKISIDSNDYLLDAGCGDGSFTQMLANLVPDGYVLGLDRSKTMIDYANKHCRSINVRFDIGDIQEPIIYGPFDNILSFWCLHWTDLEKSLSNLYHVLKPGGKICAIFSSGKQSTLFEVLNSLQFQNLYPDVAKNVVQSKMMRENYSVQCRRALDNLPFKSISFVVEHCQVELPDLGLFENFIHGAPLFKDLPGKMYQDIVNGMVQFFDEYCKKKYGGKWVYETTPYFLTITREGHHHHHH", "soluble on expression in E. coli": "soluble"}
{"sequence": "MSLDQREILQKFLDEAQSKKITKEEFANEFLKLKRQSTKYKADKTYPTTVAEKPKNIKKNRYKDILPYDYSRVELSLITSDEDSSYINANFIKGVYGPKAYIATQGPLSTTLLDFWRMIWEYSVLIIGMACMEYEMGKKKCERYWAEPVEMQLEFGPFSVSCEAEKRKSDYIIRTLKVKFNSETRTIYQFHYKNWPDHDVPSSIDPILELIWDVRCYQEDDSVPICIHCSAGCGRTGVICAIDYTWMLLKDGIIPENFSVFSLIREMRTQRPSLVQTQEQYELVYNAVLELFKRQMDVIRDKHSGTESQAKHCIPEKNHTLQADSYSPNLPKSTTKAAKMMNQQRTKMEIKESSSFDFRTSEISAKEELVLHPAKSSTSFDFLELNYSFDKNADTTMKWQTKAFPIVGEPLQEGHHHHHH", "soluble on expression in E. coli": "not soluble"}
{"sequence": "MSLDREGLNTHLKSGATTVCRAWEVRRTDGVTLGFTDHDRDLSFDGMTFRAGTGLSARSLMQSTGLAVDNSEALGALSSDAVREADIESGRYDGAEVRAWLVNWADTTERALQFRGSLGEIRRAGGAFEAELRGLTEALNQPLGRVFQKPCSAVLGDAACKFDLSTAGYAVEIDVETLRDGQLFAWASLDGFAPGWFTGGRLTVLGGAGAGLWAPIRSDSLNARREITLWQPIRADIQPGDLVRLSAGCDKRQSTCRLKFDNLVNYQGFPDIPGEDWMVAVPKRTGQNTGGSRREGHHHHHH", "soluble on expression in E. coli": "soluble"}
{"sequence": "MSLDRRAQQRLALGEFLRARRRAAVRAELGLPDMPRSRTSGLRREEVAVQAGVSVTWYTWLEQGRDINPSRQVLDAIARALRLSPSEHDYVLALGGYTVDHAVTAGPPPPQIQRFLDALGGHPAFAITSDWGIAAWNTAYAALYPNIERVPPPDRNLLWLVFMDPAIRELLPDWDADSRRFLAEFRADAGPMVGEPSYTALVSRLSSESPHFATAWRAADIERFTSRERLFRHPVVGELRLEHHQVAPVDVPDIQIVAYLPEPGSVAAERLRRLVGQAGDTAREGHHHHHH", "soluble on expression in E. coli": "soluble"}
{"sequence": "MSLDSWNVLIADDEIIIREGIRDAINWSELQLTVVAEAEDGEEALELALEHQVDILLADLNMPIMNGLTLIKQLRTALPHCKVIIITGHDEFVYAQEAIRLSVVDYIIKPVDADQLYEVLKKVCIELTEGQNRKREETFTAKQLEKNITLLREQFCSNWVMGALTNEEVAEQLSFLQLPDTLPSFIGVIRCLNRLHLVGEGHHHHHH", "soluble on expression in E. coli": "soluble"}
{"sequence": "MSLDTENVKYRSITTKIELDDLIESLKKAKYISIDTETSSLDTYTAKLIGISISFKEFEGYYIPIEAKGKIYIEKNYIIQKFNNLFESNPKIIGQNYKFDYKILKNNGFNPIPPYFDTMIAAYLIDTNSKVSLDFLAEKYLMHKNIKYEDVIQKNDNFANISLEMATSYSSEDADITFRLFNIFTKKLKEDKLDKLMHEIEMPFNKVIIEMEENGIYLDKEYLKEYGKELGKELEAIENEIIKSIGIDFNLNSPKQMHEILFEKLNLKLPEKMKKDSTDIKVLESLREQHESIENLIKYRQIAKLKSTYTDNLIELINYKTNRLHTSFIQTKTATGRITSINPNLQNIPIKDEKGRKIRKAFKPENGNIFISADYSQIELAILAHLSQDEVLIKAFENNKDIHTETASKLFKIEEKEITPNLRRIAKSINFGIIYRMSDFRLAKELGITKEEAKGFINSYFDSYPKIKEFIINQINFVRNAGYSETILKRRRYIKEINSNNYLERSAAERIAINSIIQGSAADIMKIAMVKVFNEFKSKKMESKILLQVHDEMLIESPIEEENEVKKILKIMMETAYTLNLPLRANIETGKSWGEIHEGHHHHHH", "soluble on expression in E. coli": "soluble"}
{"sequence": "MSLDVFVLDTSVFTNPEIYRTFEEDQRGAMETFIHLALNSRAEFYMPTSVYTEMRKIMDVGELWAEFEMVVKIRSPRRFQLTVPADFLYEFIEELRYRINKGLRIAEEHTREASGCEDVGKLIARLREKYREALRQGILDSKEDVDVLLLAYELDGVLVSADEGLRTWADKIGIKLIDPKNFKNILESLVRHRFEGHHHHHH", "soluble on expression in E. coli": "soluble"}
{"sequence": "MSLDWHTLLTRERLGKALYSADELGRSPFHKDHDRIIFSGAFRRLGRKTQVHPVSSNDHIHTRLTHSLEVSCVGRSLGMRVGETLRDNLPDWCAPSDLGMIVQSACLAHDIGNPPFGHSGEDAIRHWFQQAAGRGWLDDMSDDERADFLNFEGNAQGFRVLTQLEYHQFDGGTRLTYATLGTYLKYPWSARHADALGYKKHKFGSYQSELPLLEQIARKLGLPQLEHQRWARHPLVYLMEAADDICYALIDLEDGLEMELLQYAEVEALLLDLVGEDLPETYRQLGPRDSRRRKLAILRGKAIEHLTNAAAHAFVEQQQALLAGQLPGDLVEHMHGPAKRCVLQAKDMARNKIFQDKRKTLHEIGAYTTLEILLNTFCGAALEQHGGRTPSFKSRRVLDLIGNNAPDPHASLHSAFLRMIDFIAGMTDSYASEMAREMTGRSSPTEGHHHHHH", "soluble on expression in E. coli": "soluble"}
{"sequence": "MSLDWTCKHHADLTLKELYALLQLRTEVFVVEQKCPYQEVDGLDLVGDTHHLMAWRDGQLLAYLRLLDPVRHEGQVVIGRVVSSSAARGQGLGHQLMERALQAAERLWLDTPVYLSAQAHLQAYYGRYGFVAVTEVYLEDDIPHIGMRRA", "soluble on expression in E. coli": "soluble"}
{"sequence": "MSLDYQGYLIDLDGTIYLGKEPIPAGKRFVERLQEKDLPFLFVTNNTTKSPETVAQRLANEFDIHVPASLVYTATLATIDYMKEANRGKKVFVIGEAGLIDLILEAGFEWDETNPDYVVVGLDTELSYEKVVLATLAIQKGALFIGTNPDKNIPTERGLLPGAGSVVTFVETATQTKPVYIGKPKAIIMERAIAHLGVEKEQVIMVGDNYETDIQSGIQNGIDSLLVTSGFTPKSAVPTLPTPPTYVVDSLDEWTFEGHHHHHH", "soluble on expression in E. coli": "soluble"}
{"sequence": "MSLEAPVYKEIFGAVKIYELQKVIKMDTETEDVPMFTVQNLPREDIYKTIGEMAIIVPMKNEKLHLVDGVLKAIPHKSPIIIVSNSKRKGPNRFKQEVDLVKHFCNLTHSKVIMIHQRDPGLAEAFRETGYEDILDEKGLVRSGKGEGMLIGIMLAKAIGAKYVGFVDADNYIPGAVNEYVKDYAAGFLMSESEYAMVRLHWRHKPKVSRGTLYFKKWGRVSEITNRYLNQLISEKTAFETTIMVTGNAGEHAMTMKLAEILPFSTGYSIEPYEIVYLLERFGSWENVEEFQDVFDQGIEIFQIETLNPHFHEDKGQEHVKEMVLLSLTTIYHSKLASERLKRQILEDLRMHGIIKEDEEPPKPRVMRPIKDIDIKKWMKTLESNQETLLRFDLEGHHHHHH", "soluble on expression in E. coli": "soluble"}
{"sequence": "MSLEARGLNVTIMKLDPYINVDPGTMSPTQHGEVFVTQDGAETDLDLGHYERFIRTKMTKRNNFTTGKIYSEVLRKERRGDYLGATIQVIPHITNEIKDRVIAGAQGHDVVIVEVGGTVGDIESLPFLEALRQLAVQVGREHTLFMHLTLVPYIPTAGEVKTKPTQHSVKELLSIGIQPDVLICRSDRMIPPNERAKIALFCNVAERAVISLKDVNSIYQIPALLKSQGLDDFVCERFRLTCPEADLTEWEQVLYKQANPVGEVTIGMVGKYTELPDAYKSVNEALKHAGLTNRLSVNIKYIDSQDVETKGVEVLKGIDGILVPGGFGYRGVEGKIRTAQYARENKIPYLGICLGMQIALIEYARNVAGLTKANSSEFDKDCEQPVVALITEWQDAEGNTEVRTDESDLGGTMRLGAQQCHLVSGSRARELYGKETIEERHRHRYEVNNTLLPQIEKAGLKVTGLSADKKLVEIIEVPNHPWFVACQFHPEFTSTPRDGHPLFAGFVKAAYENHKKSVKEGHHHHHH", "soluble on expression in E. coli": "not soluble"}
{"sequence": "MSLEDVIEKLRELNEPVPVPLELPEEELLVEIEEELLIGIPAEFREFLLLVSDVVYGRLEPVTVTDPHSHTYLPEVAATAWDLGVPRELIPLCEDDGSYYCVAEDGEVVLWADGDLTDESWDSVWVWARDVWLESEGHHHHHH", "soluble on expression in E. coli": "soluble"}
{"sequence": "MSLEEATVEDIMIPRTEIVGIDLDDPWSETLERLTNSQYTRMPVYRGTVDHVMGFVHVRRIVGDLVRGNFTPEDLQARLKEPFFIPEGTGLHTQLLKFQRQRERVGLVVDEYGEILGLAALDDILEEIVGEFTTDPGTLTRSINRQDDGTYLVEGSATVRELNRVLGWELETSGPKTLNGLILERLETIPEAGTSLLIDGYPVTIVQTQGNRVKTAEIQPERPPSVQREGHHHHHH", "soluble on expression in E. coli": "soluble"}
{"sequence": "MSLEEAVDLSVLYVEDDELSRSGIFNALKRKVKNIHFAANGQEGLEVFKEHRPDVVITDIKMPLLNGLEMAKQILEMEPSVEIIVATAFEDAELFKRAIDLDVDKYLTKPLDVTQILMHLKRIEMQKRLEREFEVYSRALNEVASIFWFDLELECLKVNPRAIASGGEHGVENEKLKEMARLALEKGGRHQEGNKIFSVAFNVAKEPKGFCLCVMESMEEGHHHHHH", "soluble on expression in E. coli": "soluble"}
{"sequence": "MSLEEKPKYKRILLKLSGEAFAGEQGYGIDPAFLEYISHEIKNVYDLGVQVAIVIGGGNIFRGFQGKEIGVDRATADYMGMLATVINALALQSALENHVNIPTRVLSAIEMRQVAEPYIRRRAIRHLEKGRIVIFAGGTGNPFFSTDTAAALRAAEIGAEVLIKATKVGGIYDKDPEKYPDAVLIKEISYLEVINMGLKVMDHTALTLCKENEIPIIVLNVKEKGNLRRAVLGEEVGSVVRGEGHHHHHH", "soluble on expression in E. coli": "soluble"}
{"sequence": "MSLEFKGELTFEQELALSDMTSKENGLLHAETGFGKTVLGAALISERKTKTIILVHNKQLLDQWLDRLNCFLTFEEEEAIRYTASGREKVIGYVGQYGGTKKWLSKLVDVVMIQSLFKLENSQSLLDEYEMMIVDECHHVSALMFEKVVAQFRGKYLYGLTATPERKNGHEPIVFQRIGEILHTADKRETDFKRQLQLRFTSFGHLEIEKTKASNFIQLSDWIATDSVRNQMILKDILAQVAEGRNILVLVNRIQQIDVFEKLLKEKEVDDCYIISGKTKVRERTSLLETLEQLDKGFVLLSTGKYIGEGFDLPQLDTLILAAPFSWKNNLIQYAGRIHRNYKDKSLVRIFDYVDIHVPYLEKMFQKRQVAYRKMDYRVIEGEGHHHHHH", "soluble on expression in E. coli": "not soluble"}
{"sequence": "MSLEHAAEILANRYVRGDALTNPDATKEYVRCKLGSYEREVFALLLLDNQNRLIEFKELFQGTVDAASVYPREVVKAVLEVNAAAVIFAHNHPSGDSTPSQADRRITERLKDTLALVDVRVLDHIVTGDTCTSFAERGWLEGHHHHHH", "soluble on expression in E. coli": "not soluble"}
